Laboratory results taken from paper PMC11336900, “Nanobody‐Engineered Biohybrid Bacteria Targeting Gastrointestinal Cancers Induce Robust STING‐Mediated Anti‐Tumor Immunity” (Advanced Science, 2024).

Assays:
[1] = biological target: T1, murine CDH17 protein fragment, domain 1–3 (Mus musculus, UniProt Q9R100); assay: SPR; affinity determination of nanobodies against human and murine CDH17 proteins; settings: both partners purified
T1 construct: cadherin 17 (CDH17), mouse, domain 1–3; also called mouse CDH17; source: E. coli BL21(DE3), purified (Ni-NTA, gel filtration)

[2] = biological target: T2, human CDH17 protein fragment, domain 1–3 (Homo sapiens, UniProt Q12864); assay: as above; settings: both partners purified
T2 construct: cadherin 17 (CDH17), human, domain 1–3; also called cadherin 17; CDH17 antigen; source: E. coli BL21(DE3), purified (Ni-NTA, gel filtration)
T2 sequence (Q12864 whole entry, looked up, the tested form may be a part): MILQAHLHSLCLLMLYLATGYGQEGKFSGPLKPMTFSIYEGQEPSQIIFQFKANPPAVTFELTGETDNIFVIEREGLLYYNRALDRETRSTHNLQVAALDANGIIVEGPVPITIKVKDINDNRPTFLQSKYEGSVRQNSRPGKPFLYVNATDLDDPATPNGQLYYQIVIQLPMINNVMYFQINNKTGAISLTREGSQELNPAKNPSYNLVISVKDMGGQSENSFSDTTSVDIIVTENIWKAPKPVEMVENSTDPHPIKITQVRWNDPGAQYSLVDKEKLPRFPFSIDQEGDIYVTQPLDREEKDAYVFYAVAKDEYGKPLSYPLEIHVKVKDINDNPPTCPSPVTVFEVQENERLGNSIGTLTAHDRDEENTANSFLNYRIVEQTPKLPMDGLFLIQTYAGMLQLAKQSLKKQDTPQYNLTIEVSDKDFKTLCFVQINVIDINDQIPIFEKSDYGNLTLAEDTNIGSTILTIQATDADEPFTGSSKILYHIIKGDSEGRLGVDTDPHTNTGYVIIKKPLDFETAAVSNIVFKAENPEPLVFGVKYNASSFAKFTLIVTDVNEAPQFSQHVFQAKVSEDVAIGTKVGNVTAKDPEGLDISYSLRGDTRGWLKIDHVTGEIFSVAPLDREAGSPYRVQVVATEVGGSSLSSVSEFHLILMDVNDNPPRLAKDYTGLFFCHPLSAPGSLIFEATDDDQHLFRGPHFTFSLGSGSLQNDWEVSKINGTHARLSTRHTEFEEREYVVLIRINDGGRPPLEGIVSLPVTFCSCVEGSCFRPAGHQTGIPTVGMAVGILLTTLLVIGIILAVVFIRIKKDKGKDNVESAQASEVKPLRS

T1 sequence (Q9R100 whole entry, looked up, the tested form may be a part): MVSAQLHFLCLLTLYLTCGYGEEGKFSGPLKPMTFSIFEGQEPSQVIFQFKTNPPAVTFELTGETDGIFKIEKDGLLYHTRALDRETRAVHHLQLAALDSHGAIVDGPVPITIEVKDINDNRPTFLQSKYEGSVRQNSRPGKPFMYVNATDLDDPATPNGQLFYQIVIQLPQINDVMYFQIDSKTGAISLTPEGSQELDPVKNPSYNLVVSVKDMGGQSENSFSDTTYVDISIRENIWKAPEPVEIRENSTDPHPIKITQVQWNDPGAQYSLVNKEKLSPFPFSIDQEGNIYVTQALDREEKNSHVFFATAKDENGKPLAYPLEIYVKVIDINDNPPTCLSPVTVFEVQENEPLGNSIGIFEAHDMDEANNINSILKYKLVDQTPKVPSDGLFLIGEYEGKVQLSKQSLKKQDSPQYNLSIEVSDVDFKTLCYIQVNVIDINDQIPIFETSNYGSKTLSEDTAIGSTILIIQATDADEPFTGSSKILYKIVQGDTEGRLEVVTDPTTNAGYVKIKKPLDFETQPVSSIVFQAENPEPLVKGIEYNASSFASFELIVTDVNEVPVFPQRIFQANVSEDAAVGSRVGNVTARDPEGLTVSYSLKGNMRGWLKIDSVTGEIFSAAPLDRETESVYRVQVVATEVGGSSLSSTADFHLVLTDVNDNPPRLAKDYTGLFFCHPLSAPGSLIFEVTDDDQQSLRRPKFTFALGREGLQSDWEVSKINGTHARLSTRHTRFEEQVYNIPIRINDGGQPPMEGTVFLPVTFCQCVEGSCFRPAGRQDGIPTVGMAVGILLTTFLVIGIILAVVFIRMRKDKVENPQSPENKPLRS

Row | Kd [1] [nM] | Kd [2] [nM] | Binder
1 | 109 | 60.1 | CDH17 nanobody Nb535 (VHH, source: prokaryotic vector pColdII (TAKARA), purified (Ni-NTA); not shown: HA, C-terminal, kept) VHH: AVQLVESGGGLVQPGGSLRLSCAASGRTFSSNGMGWFRQAPGKGREFVAAISWNAGTTLYTDSVKGRFTISRDNAKNTVYLQMNSLKPEDTAIYYCAAREYYGGSYYPSREYEYGYWGQGTQVTVSS
2 | 32.5 | 20.1 | CDH17 nanobody Nb289 (VHH, as the VHH of m5 (A1) with one amino acid difference at position 44; also called Nb289 nanobody; source: prokaryotic vector pColdII (TAKARA), purified (Ni-NTA); not shown: HA, C-terminal, kept) VHH: AVQLVESGGGLVQAGDSLRLSCAASGRTFSSNGMGWFRQAPGTGREFVAAISWNAGTTLYTDSVKGRFTISRDNAKNTVYLQMNSLKPEDTAIYYCAAREYYGGSYYPSREYEYGYWGQGTQVTVSS
